The values that follow come from US20140287419A1, “Compositions Having Dicamba Decarboxylase Activity and Methods of Use” (priority 2013, published 2014).

B1: SEQ ID NO:108: hypothetical protein SAV2580, Staphylococcus aureus subsp. aureus Mu50 (protein, listed as Staphylococcus aureus)
chain: MAKSITFEEHYVIEDIQKETMNAISADPKGVPMKVMLEGLEKKTGFTNADELSHHDERIQFMNNQDVQIQVLSYGNGSPSNLVGQKAIELCQKANDQLANYIAQYPNRFVGFATLPINEPEAAAREFERCINDLGFKGALIMGRAQDGFLDQDKYDIIFKTAENLDVPIYLHPAPVNSDIYQSYYKGNYPEVTAATFACFGYGWHIDVGIHAIHLVLSGIFDRYPKLNMIIGHWGEFIPFFLERMDEALFAEHLNHSVSYYFKNSFYITPSGMLTKPQFDLVKKEVGIDRILYAADYPYIEPEKLGVFLDELGLTDEEKEKISYTNGAKLLGLSSNN
B2: SEQ ID NO:114: Design variant of SEQ ID NO: 1 (protein)
chain: MAQGKVALEEHFAIPETLQDSAGAVPGDYWKELQHRLLDIQDTRLKLMDAHGIETMILSLNAPAVQAIPDRRKAIEIARRANDVLAEECAKRPDRFLAFAALPLQDPDAATEELQRCVNDLGFVGALVNGFSQEGDGQTPLYYDLPQYRPFWGEVEKLDVPFYLHPRNPLPQDSRIYDGHPWLLGPTWAFAQETAVHALRLMASGLFDEHPRLNIILGHMGEGLPYMMWRIDHRVAWVKLPPRYPAKRRFMDYFNENFHITTSGNFRTQTLIDAILEIGADRILFSTDWPFENIDHASDWFNATSIAEADRVKIGRTNARRLFKLDGA
modifications: Dicamba decarboxylase variant clone DC.4.116
B3: SEQ ID NO:111: Design variant of SEQ ID NO: 1 (protein)
chain: B2 chain with A22M, A24F, Q34M, V235M, V238I
modifications: Dicamba decarboxylase variant clone DC.4.112
B4: SEQ ID NO:113: Design variant of SEQ ID NO: 1 (protein)
chain: B2 chain with A24F, W30L, Q34F
modifications: Dicamba decarboxylase variant clone DC.4.114
B5: SEQ ID NO:110: Design variant of SEQ ID NO: 1 (protein)
chain: B2 chain with A22M, A24F, Q34M, V235M
modifications: Dicamba decarboxylase variant clone DC.4.111
B6: SEQ ID NO:112: Design variant of SEQ ID NO: 1 (protein)
chain: B2 chain with A24F, Q34V
modifications: Dicamba decarboxylase variant clone DC.4.113
B7: SEQ ID NO:109: Design variant of SEQ ID NO: 1; designed mutation N235V (protein)
chain: B2 chain with A24F
modifications: Dicamba decarboxylase variant clone DC.4.032
notes: designed mutation N235V
B8: SEQ ID NO:116: Design variant of SEQ ID NO: 41; new 35 amino acid N-terminal loop (protein)
chain: MAQGKVALEEHFAIPETLQDAAGFVPGDYWKELQHRLLDIQDRRVRLMDEHGIETMILSLNAPAVQAIADSTRANETARRANDFLAEQVAKQPTRFRGFAALPMQDPELAARELERCVKELGFVGALVNGFSQDNRSAVPLYYDMAQYWPFWETVQALDVPFYLHPRNPLPSDARIYDGHAWLLGPTWAFGQETAVHALRLMGSGLFDKYPALKIILGHMGEGLPYSMWRIDHRNAWIKTTPKYPAKRKIVDYFNENFYLTTSGNFRTQTLIDAILEIGADRILFSTDWPFENIDHAADWFENTSISEADRKKIGWGNAQNLFKLNR
modifications: Dicamba decarboxylase variant clone DC.30.007
notes: new 35 amino acid N-terminal loop
B9: SEQ ID NO:32: o-pyrocatechuate decarboxylase, Streptomyces violaceusniger Tu 4113 (protein)
chain: MARIIAIEEHFLDLDIARASRPEAERLSPAFAAAYGAGQGYNYSPAPEVLLDLEEGRVADMDAHGISMQVLSSLSTQQLPADVAVELVRKVNDRAAAAVAARPDRFAAFAALPTTVPEAAADELDRAVGELGFVGSMINGRTGDAFLDAPRFDAVLRRSAELRVPVYLHPGVPPVETSRSNYEGGLDPIVTARLQTSAWGWHVETGIHFLHLVLAGVFDRYPDLQVILGHWGEMVPFFLERIEEALPQQITHLDRPVGAYFRENAHITPSGMFSQAQLQFCVETVGIERIMFSVDYPFLGNDGAEAFLRQANLPPLATEKIAHLNAERLLALPS
modifications: Streptomyces violaceusniger
B10: SEQ ID NO:115: Design variant of SEQ ID NO: 1 (protein)
chain: MAQGKVALEEHFAIPDTLTTYTTSGDYEKELKHRLLDIQDTRLKLMDAHGIETMILSLNAPGVQAIPDRRKAIEIARRANDVLAEECAKRPDRFLAFAALPLQDPDAATEELQRCVNDLGFVGALVNGFSQEGDGQTPLYYDLPQYRPFWGEVEKLDVPFYLHPRNPLPQDSRIYDGHPWLLGPTWAFAQETAVHALRLMASGLFDEHPRLNIILGHMGEGLPYMMWRIDHRNAWVKTPPRYPAKRRFMDYFNENFHITTSGNFRTQTLIDAILEIGADRILFSTDWPFENIDHASDWFNATSIAEADRVKIGRTNARRLFKLDGA
modifications: Dicamba decarboxylase variant clone DC.4.161

Residue numbers refer to the chain shown, from its start. In names and notes the source's numbering stands. Entries after “also recorded” stand apart in the source; their conditions may differ.

One data set in a line: 14C assay with purified protein (14CO2 captured on Ca(OH)2 filter paper). The format is biochemical. The note with it: [14C]-carboxyl-labeled dicamba.
For B1, the CO2 product result is “detected”.
Turning to B2, the CO2 product result is “detected”.
Still for that read-out and setting: the value for B3 was “detected”; that for B4 was “detected”.
As to B5, the CO2 product result is reported as “detected”.
In the case of B6, the CO2 product entry is recorded as “detected”.
For the molecule B7, the CO2 product entry is on record as “detected”.
On to B8, for which the CO2 product entry was “detected”.
Take B9: the CO2 product result is “detected”.
Turning to B10, the CO2 product entry is “detected”.

The next data set can be described thus: Detection of 4-chloro-3-methoxy phenol product by LC-MS/MS. To be noted: purified protein. The format is biochemical. Here is the method: The decarboxylated and chloro hydrolyzed product, 4-chloro-3-methoxy phenol (FIG. 1D), is measured using a LC-MS/MS analytical procedure. […] 10 ul is removed from the reaction mixture and mixed with 90 ul pre-chilled methanol followed by centrifugation at 14,000 rpm for 15 min at 4° C. 10 ul of the supernatant is then transferred into 170 ul ddH2O to achieve 5% methanol solution for injection. 50 ul of the prepared sample is injected into a 4000 Q Trap LC-MS/MS system for sample analysis. LC-MS/MS parameters are: Mobile Phase A, 2 mM ammonium acetate in water; Mobile Phase B, 2 mM ammonium acetate in methanol; Column, Aquasil, 100×2.1 mm, 3 μm, C18 column; Flow Rate, 0.6 ml/min. The MS/MS fragment 157/142 which is common to 4-chloro-3-methoxy phenol, 2-chloro-5-methoxy phenol, and 3-chloro-5-methoxy phenol is monitored at a retention time of 2.88 min.
Take B1: the 4-chloro-3-methoxy phenol product result is “detected”.
B2: the 4-chloro-3-methoxy phenol product entry is on record as “detected”.
As to B3, the 4-chloro-3-methoxy phenol product entry is “detected”.
Take B4: the 4-chloro-3-methoxy phenol product result was “detected”.
Regarding B5, the 4-chloro-3-methoxy phenol product result was “detected”.
The same measure, in the same setting: the value for B6 was “detected”.
With B7, the 4-chloro-3-methoxy phenol product entry is listed as “detected”.
In the case of B8, the 4-chloro-3-methoxy phenol product result is on record as “detected”.
As to B9, the 4-chloro-3-methoxy phenol product result is “detected”.
Take B10: the 4-chloro-3-methoxy phenol product entry is given as “detected”.

The nature of a further data set: Detection of 2,5-DCP product by GC/MS. In kind it is biochemical. The note with it: purified protein. Here is the method:
The decarboxylated and demethylated product of dicamba, 2,5-dichloro phenol or 2,5-DCP (FIG. 1E) is measured using a GC/MS analytical procedure with either liquid injection after liquid/liquid extraction using toluene as the extraction solvent or gas injection using head space method. The head space sample analysis is carried out on an Agilent GC/MS system with a 6890A GC, a 5973N MSD and a CTC CombiPAL auto-sampler or with a 7890A GC, a 5975C MSD and an Agilent GC Sampler 80 auto-sampler with Phenomenex ZB-MultiResidue-1 column (30 m length, 0.25 mm diameter, 0.25 um film) or equivalent. GC/MS parameters are: GC inlet temperature, 200° C.; Carry gas, helium in constant flow mode (1.2 mL/min); Oven temperature program, 70° C. for 1 min and then ramp to 275° C. at 40° C./min. […] The reaction vial is transferred to a agitator for incubation at 90° C. for 4 min at 500 rpm. With a syringe preheated at 110° C., 1000 uL of head space is injected with sample fill speed at 100 uL/sec. A 2-mm diameter liner is used in sample inlet. The MS data acquisition is done in SIM (selected ion monitoring) mode. The positive ion at M/Z 162 for the molecular ion of 2,-5-DCP is monitored at retention time of 4.06 min. Solvent delay for MS acquisition is set at 3 min. GC/MS parameters for liquid sample analysis are the same as those for head space analysis, except that the volume of liquid injection is 1 uL.
For B1, the “2,5-DCP product” value is “detected”.
Turning to B2, the “2,5-DCP product” value is on record as “detected”.
Same read-out and setting: with B3 the entry was “detected”; with B4, “detected”; with B5, “detected”.
Regarding B6, the “2,5-DCP product” value was “detected”.
As to B7, the “2,5-DCP product” value is on record as “detected”.
B8: the “2,5-DCP product” value is “detected”.
Consider B9, for which the “2,5-DCP product” value was “detected”.
As to B10, the “2,5-DCP product” value is given as “detected”.

The next data set can be described thus: Dicamba decarboxylation activity of computationally designed protein variants. To be noted: native protein or designed variant versus parent.
Regarding B2, the “Dicamba Decarboxylase Activity” value is on record as “displays an increase in dicamba decarboxylase activity”.
For B3, the “Dicamba Decarboxylase Activity” value is “displays an increase in dicamba decarboxylase activity”.
Take B4: the “Dicamba Decarboxylase Activity” value is “displays an increase in dicamba decarboxylase activity”.
As for B5, the “Dicamba Decarboxylase Activity” value is given as “displays an increase in dicamba decarboxylase activity”.
For the molecule B6, the “Dicamba Decarboxylase Activity” value is reported as “displays an increase in dicamba decarboxylase activity”.
With B7, the “Dicamba Decarboxylase Activity” value is “more active than their parent sequence; also recorded: displays an increase in dicamba decarboxylase activity”.
Take B8: the “Dicamba Decarboxylase Activity” value is on record as “displays an increase in dicamba decarboxylase activity”.
As to B10, the “Dicamba Decarboxylase Activity” value is “displays an increase in dicamba decarboxylase activity”.

A further data set can be described thus: 14C assay with IPTG-induced recombinant E. coli cells (14CO2 capture from [14C]-carboxyl-labeled dicamba). The note with it: E. coli cell assay, 108 sequences tested.
In the case of B1, the “decarboxylation activity of dicamba” value is on record as “showed decarboxylation activity of dicamba”.
B9: the “decarboxylation activity of dicamba” value is recorded as “showed decarboxylation activity of dicamba”.
